Substrate in data set [1]: OO
Nature of the data set: Steady-state kinetics (Michaelis-Menten) of purified VP design 11H with peroxidase substrates. Type of data set: biochemical, Pleurotus ostreatus. The settings on record: other: H2O2 kinetics with 2 mM ABTS, optimum pH for ABTS, 25° C. As for the experimental part:
(§1) VPs production and purification. A colony from S. cerevisiae clone containing the VP gene (5H, 8H, 11H, VPL_R4, VPL_2-1B) was picked from an SC drop-out plate, inoculated in 25 mL minimal medium in a 250 flask, and incubated for 48 hours at 30° C. and 225 rpm. An aliquot of cells was removed and used to inoculate 100 mL of minimal medium in a 1 L flask to an OD600 nm of 0.25-0.30, under the same conditions. The cells completed two growth phases (8-10 hours, reaching OD600 nm˜1-1.5), then the expression medium (450 mL) was inoculated with 50 mL of the pre-culture in a 2 L flask (OD600 nm˜0.1). Cells were incubated for a further ˜60 hours at 30° C. and 225 rpm. Thereafter, cells were centrifuged at 6000 g for 15 min at 4° C., and the supernatant was collected and filtered with a 0.2 μm filter bottle.
(§2) Filtrates were subjected to fractional precipitation with ammonium sulfate in two steps: first cut of 50%, followed by centrifugation and elimination of the precipitates, and the second cut of 70%. Buffer A was used to dissolve the pellet, and the dissolved protein solution was shaken overnight at 4° C. for maximal recovery. The dissolved fraction was then centrifuged, filtrated, concentrated, and subjected to overnight dialysis against buffer A. Filtered fractions of the VP proteins after dialysis were uploaded into a HiTrap™ Q HP Column (GE Healthcare Bio-Sciences AB, Uppsala, Sweden) pre-equilibrated with buffer A, through ÄKTA pure protein purification system (GE Healthcare Bio-Sciences AB). Proteins were eluted in a two-step linear gradient from 0 to 1 M NaCl, at a flow rate of 1 ml/min: the first phase of 0-25% over 15 column volumes (75 min) and second phase of 25-100% over 2 column volumes (10 min). The fractions of the peak with the highest VP activity (and absorption at 407 nm) were pooled, concentrated, and dialyzed against 20 mM piperazine buffer pH=5.5 and 150 mM NaCl (buffer B). Protein fractions were then uploaded onto a Superdex 75 Increase 10/300 GL (GE Healthcare Bio-Sciences AB) through the ÄKTA pure system pre-equilibrated with buffer B. The fractions of the peak with the highest VP activity (and absorption at 407 nm) were pooled and dialyzed against buffer A. Pure protein samples were stored at 4° C. Protein concentration was determined using the BCA assay with bovine serum albumin as a standard. The obtained Reinheitszahl values (Rz: Abs407 nm/Abs280 nm), which indicate for the purity of peroxidases, were 1 for 8H (due to high tryptophan content) and above 2 for 5H, 11H, R4 and 2-1B.
(§3) pH activity profiles. For purified 5H, 8H, 11H, and R4, 20 μL protein samples (diluted in buffer A) were transferred into activity 96 plates (in the case of VA and MnSO4, UV-Star plates; Greiner Bio-One GmbH, Kremsmünster, Austria) and then, 180 μL of the reaction mixture were added to each row in the plate, and absorption at the appropriate wavelength (substrate-dependent) was recorded immediately in a kinetic mode in a plate-reader at 25° C. The reaction mixtures contained a specific substrate in 100 mM citrate-phosphate-borate buffer (pH 2, 3, 3.5, 4, 5, 6, 7, 8) and 0.1 mM H2O2. The activities were recorded in triplicate. The following substrate concentrations and absorption wavelengths were used: ABTS: 2 mM, 418 nm; DMP: 5 mM, 469 nm; RB5: 0.05 mM, 598 nm; VA: 30 mM, 310 nm. For manganese, the reaction mixtures contained 60 mM MnSO4 in 100 mM sodium tartrate buffer (pH 3, 3.5, 4, 4.5, 5) and 0.1 mM H2O2, and the Mn^3+-tartrate complex absorption was read at 238 nm. For each protein and substrate, the activities were normalized to the activity at optimal pH for residual activity calculations. Each activity assay was conducted in triplicate.
(§4) Kinetic parameters. Steady-state kinetics were determined for 5H, 8H, 11H and R4, by measuring the activity (initial rates) in increasing concentrations of the substrate, and the KM and Kcat values were calculated by fitting the results to the Michaelis-Menten model (V0=KcatES/(KM+S)). […]

Substrate in data set [2]: COc1cccc(OC)c1O
The data set is described as above. Type of data set: biochemical, Pleurotus ostreatus. Conditions: optimum pH, 25° C., 0.1 mM H2O2. The method, then:
as §1, §2, §3, §4

Substrate in data set [3]: Nc1c(N=Nc2ccc(S(=O)(=O)CCOS(=O)(=O)O)cc2)c(S(=O)(=O)O)cc2cc(S(=O)(=O)O)c(N=Nc3ccc(S(=O)(=O)CCOS(=O)(=O)O)cc3)c(O)c12
Described as above. Conditions: other: VA, RB5, optimum pH, 25° C., 0.1 mM H2O2. It counts as biochemical, Pleurotus ostreatus. The method, then: as §1, §2, §3, §4

Substrate in data set [4]: CCn1c(=NN=c2sc3cc(S(=O)(=O)O)ccc3n2CC)sc2cc(S(=O)(=O)O)ccc21
The description is as above. The settings on record: optimum pH, 25° C., 0.1 mM H2O2. Type of data set: biochemical, Pleurotus ostreatus. As for the experimental part:
as §1, §2, §3, §4

Substrate in data set [5]: COc1ccc(CO)cc1OC
The description is as above. Type of data set: biochemical, Pleurotus ostreatus. Conditions: other: VA, RB5, optimum pH, 25° C., 0.1 mM H2O2. As for the experimental part:
as §1, §2, §3, §4

Substrate in data set [6]: OO
The data set is described as follows: purified protein, by the assay type. Conditions: other: H2O2 kinetics with 2 mM ABTS, optimum pH for ABTS, 25° C.

Substrate in data set [7]: COc1cccc(OC)c1O
Nature of the data set: purified protein, by the assay type. The settings on record: optimum pH, 25° C., 0.4 mM H2O2.

Substrate in data set [8]: Nc1c(N=Nc2ccc(S(=O)(=O)CCOS(=O)(=O)O)cc2)c(S(=O)(=O)O)cc2cc(S(=O)(=O)O)c(N=Nc3ccc(S(=O)(=O)CCOS(=O)(=O)O)cc3)c(O)c12
The data set is described as follows: purified protein, by the assay type. The settings on record: other: VA, RB5, optimum pH, 25° C., 0.4 mM H2O2.

Substrate in data set [9]: CCn1c(=NN=c2sc3cc(S(=O)(=O)O)ccc3n2CC)sc2cc(S(=O)(=O)O)ccc21
The data set is described as follows: purified protein, by the assay type. The settings on record: optimum pH, 25° C., 0.4 mM H2O2.

Substrate in data set [10]: COc1ccc(CO)cc1OC
Nature of the data set: purified protein, by the assay type. The settings on record: other: VA, RB5, optimum pH, 25° C., 0.4 mM H2O2.

B1: Pleurotus ostreatus versatile peroxidase VP11, designed variant 11H, SEQ ID NO: 3 (wild type SEQ ID NO: 6; mutations A11S, V15T, A17S, P26D, I27L, L28R, E29D, … (protein)
chain: VTLPQKRATCSGGQTTSNAACCVLFDLRDDLQKNLFDGGQCGEEVHESLRLTFHDAIGFSPTKGGGGADGSVLIFSDTELNFPANLGIDEIVEAQKPFLQRHNISAGDLVQFAGALGVSNCPGAPRIPFFLGRPPATAPSPDGLVPEPFDSVDDILARMADAGFSPVEVVWLLSSHTIAAADHVDPTIPGTPFDSTPSIFDSQFFIETQLRGTLFPGTGGNPGEVESPLPGEIRLQSDHLLARDPRTACEWQSMVDNMPKIQNRFAATMLKMSLLGQNVRDLIDCSDVIPTPPPLVGTAHLPAGKTQSDVEQACATTPFPTIPADPGPVTSVPPVPPS
Regarding B1, the Michaelis constant (Km) (commonly the concentration of substrate that gives half-maximal velocity) in [1] is 38.9 ± 6.9 µM; in [2] (other: high efficiency site), 168 ± 10 µM; in data set [2] (other: low efficiency site), 11,400 ± 2,000 μM; in data set [3] it was 2.0 ± 0.2 µM; in data set [4] (other: high efficiency site) it was 6.3 ± 0.7 µM; in data set [4] (other: low efficiency site), 1,100 ± 90 μM. The Km in data set [5] is given as 2,000 ± 100 μM. Further, the kcat (usually the number of substrate molecules converted per active site and unit of time at saturation) came to 7 ± 0.5 s⁻¹ in [1]; 1.91 ± 0.04 s⁻¹ in [2] (other: high efficiency site); 6.3 ± 0.4 s⁻¹ in data set [2] (other: low efficiency site); 0.3 ± 0.01 s⁻¹ in data set [3]; 2.0 ± 0.1 s⁻¹ in data set [4] (other: high efficiency site); 11.2 ± 0.3 s⁻¹ in data set [4] (other: low efficiency site). Also, the kcat in data set [5] is 1.38 ± 0.03 s⁻¹. Also, the catalytic efficiency (kcat/Km) (usually the second-order rate constant that governs catalysis at low substrate concentration) in data set [1] turned out to be 180 ± 35 s⁻¹ mM⁻¹; in [2] (other: high efficiency site), 11.4 ± 0.7 s⁻¹ mM⁻¹; in [2] (other: low efficiency site), 0.55 ± 0.10 s⁻¹ mM⁻¹; in [3] it was 152 ± 20 s⁻¹ mM⁻¹; in data set [4] (other: high efficiency site), 314 ± 37 s⁻¹ mM⁻¹; in data set [4] (other: low efficiency site), 10.3 ± 0.9 s⁻¹ mM⁻¹. Also, the kcat/Km in data set [5] was found to be 0.68 ± 0.05 s⁻¹ mM⁻¹.

B2: Pleurotus ostreatus versatile peroxidase VP5, designed variant 5H, SEQ ID NO: 1 (wild type SEQ ID NO: 4; mutations A11S, V15T, A17S, A19E, P26D, D38G, A40Q, … (protein)
chain: VSLPQKRATCSGGQTTSNEACCVLFDLMEDLQKNLFDGGQCGEQAHEALRLTFHDAIGFSPSRGVMGGADGSVITFSDIETNFPANLGIDDIVEAEKSFLQRHNISAGDLVHFAATLAVTNCPGAPRIPFFLGRPPATAPSPPGLVPEPFDSVTDILARMADAGFSPVEVVWLLSAHSVAAADHVDPTIPGTPFDSTPNLFDSQFFIETQLRGTTFPGTGGNPGEVKSPLPGEMRLQSDHLFARDPRTACEWQSMVNDQQKIQDRFRDTLFKMSMLGQNQDDMIDCSDVIPVPPPLTTKPHLPAGKSKTDVEQACATAPFPTLPADPGPPTSVPPVPPA
As to B2, the Km in data set [6] is 197 ± 20 µM; in data set [7] (other: high efficiency site), 85.7 ± 16.9 µM; in data set [7] (other: low efficiency site), 27,700 ± 7,100 μM; in [8] it was 2.9 ± 1.0 µM; in [9] (other: high efficiency site), 1.9 ± 0.4 µM; in data set [9] (other: low efficiency site) it was 765 ± 96 µM. In data set [10], the Km is 158 ± 27 µM. Moreover, the kcat was determined as 20.3 ± 0.8 s⁻¹ in [6]; 1.2 ± 0.1 s⁻¹ in data set [7] (other: high efficiency site); 5.4 ± 0.6 s⁻¹ in [7] (other: low efficiency site); 0.18 ± 0.04 s⁻¹ in data set [8]; 1.5 ± 0.1 s⁻¹ in [9] (other: high efficiency site); 33.2 ± 1.8 s⁻¹ in [9] (other: low efficiency site). Besides, the kcat in data set [10] was found to be 0.52 ± 0.02 s⁻¹. Besides, the catalytic efficiency (kcat/Km) came to 103 ± 11 s⁻¹ mM⁻¹ in data set [6]; 14.4 ± 3.0 s⁻¹ mM⁻¹ in data set [7] (other: high efficiency site); 0.19 ± 0.05 s⁻¹ mM⁻¹ in data set [7] (other: low efficiency site); 62.3 ± 25.2 s⁻¹ mM⁻¹ in [8]; 763 ± 151 s⁻¹ mM⁻¹ in [9] (other: high efficiency site); 43.4 ± 5.9 s⁻¹ mM⁻¹ in data set [9] (other: low efficiency site). For the same protein, the catalytic efficiency (kcat/Km) in [10] came to 3.3 ± 0.6 s⁻¹ mM⁻¹.

The values are drawn from patent US12331324B2, “Versatile peroxidases and uses thereof” (Yeda Research and Development Co. Ltd., priority 2021, dated 2025).
